Publication PMC11162469, “Discovery of RXFP2 genetic association in resistant hypertensive men and RXFP2 antagonists for the treatment of resistant hypertension” (Scientific Reports, 2024)

Assays:
[1] = biological target: rat relaxin family peptide receptor 2 (RXFP2) (rat) (UniProt Q5ECL0)
[2] = biological target: rat relaxin family peptide receptor 2 (RXFP2) (rat) (UniProt Q5ECL0); remark: listed apart in the source
[3] = biological target: human relaxin family peptide receptor 2 (RXFP2) (human) (UniProt Q8WXD0)
[4] = biological target: human relaxin family peptide receptor 2 (RXFP2) (human) (UniProt Q8WXD0); remark: listed apart in the source
[5] = biological target: human relaxin family peptide receptor 2 (RXFP2) (human) (UniProt Q8WXD0); remark: listed apart in the source
[6] = biological target: rat relaxin family peptide receptor 2 (RXFP2) (rat) (UniProt Q5ECL0); remark: listed apart in the source
[7] = biological target: human relaxin family peptide receptor 2 (RXFP2) (human) (UniProt Q8WXD0); remark: listed apart in the source
rat RXFP1 (rat) = rat RXFP1 (rat) (UniProt Q6R6I6)
Sequence of rat RXFP1 (rat) (Q6R6I6 whole entry): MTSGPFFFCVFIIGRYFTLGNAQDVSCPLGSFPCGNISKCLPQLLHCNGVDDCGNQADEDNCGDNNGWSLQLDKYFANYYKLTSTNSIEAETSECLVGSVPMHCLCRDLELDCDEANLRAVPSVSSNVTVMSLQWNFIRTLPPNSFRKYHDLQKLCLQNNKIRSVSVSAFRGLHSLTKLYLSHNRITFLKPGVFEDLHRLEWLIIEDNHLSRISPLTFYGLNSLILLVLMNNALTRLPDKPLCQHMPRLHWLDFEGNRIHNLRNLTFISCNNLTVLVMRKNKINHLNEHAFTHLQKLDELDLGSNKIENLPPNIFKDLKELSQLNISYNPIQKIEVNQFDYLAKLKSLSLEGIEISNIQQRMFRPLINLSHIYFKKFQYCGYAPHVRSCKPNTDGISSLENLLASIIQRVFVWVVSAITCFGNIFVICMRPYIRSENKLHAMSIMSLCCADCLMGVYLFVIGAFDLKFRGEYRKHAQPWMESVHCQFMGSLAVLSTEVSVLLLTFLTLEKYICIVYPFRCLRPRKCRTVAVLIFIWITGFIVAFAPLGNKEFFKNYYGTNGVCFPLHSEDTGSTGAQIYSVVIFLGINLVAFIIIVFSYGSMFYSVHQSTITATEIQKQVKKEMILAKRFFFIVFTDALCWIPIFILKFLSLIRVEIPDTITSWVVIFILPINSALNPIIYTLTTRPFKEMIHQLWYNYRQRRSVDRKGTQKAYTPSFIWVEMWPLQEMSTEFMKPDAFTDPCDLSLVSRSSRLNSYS

Sequence of human relaxin family peptide receptor 2 (RXFP2) (human) (Q8WXD0 whole entry): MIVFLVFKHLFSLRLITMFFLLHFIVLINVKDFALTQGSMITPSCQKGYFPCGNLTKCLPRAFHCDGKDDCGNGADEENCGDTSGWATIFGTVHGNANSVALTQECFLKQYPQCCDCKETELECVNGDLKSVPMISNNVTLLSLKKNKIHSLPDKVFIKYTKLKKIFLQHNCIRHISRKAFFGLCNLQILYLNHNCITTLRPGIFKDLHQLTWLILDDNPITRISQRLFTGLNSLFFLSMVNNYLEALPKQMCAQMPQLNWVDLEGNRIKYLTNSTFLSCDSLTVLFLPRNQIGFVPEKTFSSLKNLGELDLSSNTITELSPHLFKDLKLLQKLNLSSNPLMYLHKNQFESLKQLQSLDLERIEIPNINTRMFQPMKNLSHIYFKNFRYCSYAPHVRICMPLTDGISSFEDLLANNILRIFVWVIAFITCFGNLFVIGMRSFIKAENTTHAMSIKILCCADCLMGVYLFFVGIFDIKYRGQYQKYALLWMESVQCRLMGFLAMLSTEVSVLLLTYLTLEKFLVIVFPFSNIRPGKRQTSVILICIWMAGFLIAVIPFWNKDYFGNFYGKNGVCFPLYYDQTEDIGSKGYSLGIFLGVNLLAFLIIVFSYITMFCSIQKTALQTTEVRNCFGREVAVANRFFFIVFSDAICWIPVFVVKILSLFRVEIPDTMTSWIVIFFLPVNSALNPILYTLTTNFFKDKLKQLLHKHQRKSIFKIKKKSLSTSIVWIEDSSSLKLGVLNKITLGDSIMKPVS
Sequence of rat relaxin family peptide receptor 2 (RXFP2) (rat) (Q5ECL0 entry or part of it): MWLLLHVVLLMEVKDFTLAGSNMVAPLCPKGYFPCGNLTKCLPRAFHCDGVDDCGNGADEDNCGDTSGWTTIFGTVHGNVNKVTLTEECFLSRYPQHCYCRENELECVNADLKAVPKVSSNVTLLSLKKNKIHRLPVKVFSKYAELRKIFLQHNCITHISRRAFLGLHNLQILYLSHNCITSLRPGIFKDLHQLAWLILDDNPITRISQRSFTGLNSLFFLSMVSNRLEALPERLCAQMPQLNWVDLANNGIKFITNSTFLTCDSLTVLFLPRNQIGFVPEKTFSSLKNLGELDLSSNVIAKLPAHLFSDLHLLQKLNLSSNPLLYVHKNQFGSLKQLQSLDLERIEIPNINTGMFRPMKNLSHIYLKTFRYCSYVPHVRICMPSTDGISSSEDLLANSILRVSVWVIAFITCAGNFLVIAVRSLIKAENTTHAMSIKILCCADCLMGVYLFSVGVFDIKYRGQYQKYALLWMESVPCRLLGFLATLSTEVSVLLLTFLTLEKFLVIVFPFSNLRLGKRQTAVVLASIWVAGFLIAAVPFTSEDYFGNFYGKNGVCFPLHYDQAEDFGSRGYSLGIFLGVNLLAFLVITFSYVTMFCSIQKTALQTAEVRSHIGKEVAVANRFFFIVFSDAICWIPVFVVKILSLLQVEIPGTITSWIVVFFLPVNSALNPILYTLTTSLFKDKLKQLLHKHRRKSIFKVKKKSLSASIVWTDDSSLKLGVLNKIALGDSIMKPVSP
Sequence of Human INSL3 (insulin-like peptide 3) (ligand) (P51460 21-131): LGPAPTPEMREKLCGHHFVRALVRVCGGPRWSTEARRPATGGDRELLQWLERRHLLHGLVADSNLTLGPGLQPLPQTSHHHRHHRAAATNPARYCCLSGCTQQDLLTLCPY
Sequence of INSL3 (species not stated for the stable HEK293 cAMP assays) (ligand) (P51460 21-131): as above
Sequence of relaxin (H2 Relaxin) (ligand) (P04090 25-185): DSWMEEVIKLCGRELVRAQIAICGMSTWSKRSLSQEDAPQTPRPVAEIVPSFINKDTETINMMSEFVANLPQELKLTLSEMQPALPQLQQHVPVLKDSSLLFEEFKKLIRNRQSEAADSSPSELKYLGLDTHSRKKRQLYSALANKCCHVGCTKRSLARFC

Substance: Human INSL3 (insulin-like peptide 3) (ligand)
- EC50, INSL3-induced cAMP in HEK293 transiently expressing rat RXFP2 (BacMam) [1]: 13 nM
- EC50, CYP11B1 mRNA expression after 48 h in H295R-rRXFP2 [2]: 0.3 nM
- EC50, CYP11B2 mRNA expression after 48 h in H295R-rRXFP2 [2]: 0.4 nM
- EC50, CYP11B1 mRNA expression after 48 h in H295R-hRXFP2 [3]: 1.3 nM
- EC50, CYP11B2 mRNA expression after 48 h in H295R-hRXFP2 [3]: 2 nM
- EC50, cAMP generation after 30 min in H295R stably expressing human RXFP2 [3]: 4 nM
- EC50, INSL3-induced cAMP (HTRF) in HEK293 expressing human RXFP2 (BacMam) [4]: 0.048 nM
- EC50, INSL3-induced intracellular calcium (FLIPR) in HEK293 Gα16 cells transiently expressing RXFP2 [5]: 13.4 nM

Substance: INSL3 (species not stated for the stable HEK293 cAMP assays) (ligand)
- EC50, INSL3-induced cAMP generation in HEK293-rRXFP2 cells (stable) [6]: 8.4 nM
- EC50, INSL3-induced cAMP generation in HEK293-hRXFP2 (stable) [7]: 2.9 nM

Substance: relaxin (H2 Relaxin) (ligand)
- EC50, relaxin-induced cAMP generation in HEK293-rat RXFP1 (stable) (rat RXFP1 (rat)): 29.5 nM
